Data as given in paper PMC10199079, “ERK and USP5 govern PD-1 homeostasis via deubiquitination to modulate tumor immunotherapy” (Nature Communications, 2023).
One block for each molecule: values may come before it.

Experiments:
USP5 [1] = molecular target: USP5 (UniProt P45974); assay: anti-HA co-immunoprecipitation, immunoblot; conditions: reference: PD-1 wild type; sites T234
USP5 [2] = molecular target: USP5 (UniProt P45974); assay: GST-USP5 pull-down from cell lysate; conditions: reference: PD-1-cHA wild type lysate; sites T234
USP5 [3] = molecular target: USP5 (UniProt P45974); assay: biotin-peptide streptavidin pull-down; conditions: reference: unphosphorylated PD-1 peptide; sites T234
USP5 UBA1/2 domains = USP5 UBA1/2 domains (UniProt P45974); assay: biotin-peptide streptavidin pull-down; conditions: reference: unphosphorylated PD-1 peptide; sites T234
USP5 [4] = molecular target: USP5 (UniProt P45974); assay: GST pull-down with purified His-USP5; conditions: reference: GST-PD-1 (192-288) wild type, ERK1-treated; sites T234
His-USP5 = molecular target: T1, His-USP5 (human, UniProt P45974 1-858); assay: pull-down; bacterially purified GST-PD-1 (192-288) phosphorylated by ERK1 in vitro, then GST pull-down with purified recombinant His-USP5, immunoblot; conditions: both partners purified
T1 construct: recombinant human USP5, His-tagged; also called recombinant human USP5 protein; purified recombinant His-USP5; source: bought: Sino biological (12772-H08B), purified recombinant USP5 from baculovirus-insect cells
T1 sequence (looked up): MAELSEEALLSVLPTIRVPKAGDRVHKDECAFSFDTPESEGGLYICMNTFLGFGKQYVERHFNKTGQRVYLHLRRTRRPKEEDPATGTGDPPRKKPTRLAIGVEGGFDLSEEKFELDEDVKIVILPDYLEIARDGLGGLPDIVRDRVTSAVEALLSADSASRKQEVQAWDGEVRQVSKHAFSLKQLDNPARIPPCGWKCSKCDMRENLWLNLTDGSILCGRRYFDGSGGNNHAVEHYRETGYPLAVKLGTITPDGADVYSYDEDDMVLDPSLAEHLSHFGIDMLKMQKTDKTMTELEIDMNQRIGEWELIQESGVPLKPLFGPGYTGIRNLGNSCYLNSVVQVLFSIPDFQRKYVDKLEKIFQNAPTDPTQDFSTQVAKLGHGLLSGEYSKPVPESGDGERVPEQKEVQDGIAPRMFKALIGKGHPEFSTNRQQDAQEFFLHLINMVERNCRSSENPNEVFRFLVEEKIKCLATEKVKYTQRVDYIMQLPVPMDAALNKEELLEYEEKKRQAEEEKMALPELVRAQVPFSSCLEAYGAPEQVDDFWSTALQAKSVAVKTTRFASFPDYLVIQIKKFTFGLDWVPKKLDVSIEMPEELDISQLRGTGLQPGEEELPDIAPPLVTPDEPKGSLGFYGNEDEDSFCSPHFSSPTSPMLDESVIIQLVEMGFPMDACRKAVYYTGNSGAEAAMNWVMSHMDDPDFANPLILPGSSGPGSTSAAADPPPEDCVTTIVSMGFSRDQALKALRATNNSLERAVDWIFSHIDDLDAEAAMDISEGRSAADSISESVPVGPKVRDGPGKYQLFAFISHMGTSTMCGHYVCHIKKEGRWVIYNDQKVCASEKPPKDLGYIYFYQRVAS

binding against the reference (USP5 [1]): weaker
Molecule: PD-1 (from UniProt Q15116) PD-1 T234A

binding against the reference (USP5 [2]): weaker
Molecule: PD-1 (from UniProt Q15116) PD-1-cHA T234A lysate

binding against the reference (USP5 [3]): gained | binding against the reference (USP5 UBA1/2 domains): gained
Molecule: PD-1 (from UniProt Q15116) pT234 PD-1 peptide

binding against the reference (USP5 [4]): weaker
Molecule: PD-1 cytoplasmic region, 192-288 (from UniProt Q15116) GST-PD-1 (192-288) T234A, ERK1-treated

binding result (His-USP5): binds
B1: ERK1-phosphorylated GST-PD-1 (192-288) (domain or fragment, human, UniProt Q15116 192-288, looked up)
chain: CSRAARGTIGARRTGQPLKEDPSAVPVFSVDYGELDFQWREKTPEPPVPCVPEQTEYATIVFPSGMGTSSPARRGSADGPRSAQPLRPEDGHCSWPL
modifications: phosphorylated by ERK1 in vitro (the paper maps the ERK site to Thr234)
notes: source: E. coli BL21, purified, then phosphorylated by ERK1 in vitro
